Data on one substance can be found in PMC11722267.

For this test, the target named is 5-FAM-labelled VISTA WT peptide (fluorescence polarization probe) (human). The test can be described thus: fluorescence polarisation.
Chain of 5-FAM-labelled VISTA WT peptide (fluorescence polarization probe) (human) (Q9H7M9 232-258): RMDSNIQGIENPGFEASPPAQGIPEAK

Substance “recombinant NUMB PTB domain (domain or fragment)” came in with a Kd of 5.5 µM.
